Laboratory results: patent US20210024654A1 (AMPHIVENA THERAPEUTICS, published 2021)
Residue numbers refer to the chain shown, from its start.

B1: CD33/CD3 tandem diabody 02 (bispecific antibody)
chain: DIQMTQSPSSLSASVGDRVTITCRSSTGAVTTSNYANWVQQKPGKAPKGLIGGTNKRAPGVPARFSGSGSGTDFTLTISSLQPEDFATYYCALWYSNLWVFGQGTKVEIKGGSGGSQVQLVQSGAEVKKPGASVKVSCKASGYTFTSYDINWVRQAPGQGLEWMGWMNPNSGNTGFAQKFQGRVTMTRDTSTSTVYMELSSLRSEDTAVYYCARDRAVTDYYYGMDVWGQGTLVTVSSGGSGQSVLTQPPSASGTPGQRVTISCSGSRSNIGSNTVNWYQQLPGTAPKLLIYGNNQRPSGVPDRFSGSKSGTSASLAISGLQSEDEADYYCATWDDSLIGWVFGGGTKLTVLGGSGGSEVQLVESGGGLVQPGGSLRLSCAASGFTFSTYAMNWVRQAPGKGLEWVGRIRSKYNNYATYYADSVKDRFTISRDDSKNSLYLQMNSLKTEDTAVYYCARHGNFGNSYVSWFAYWGQGTLVTVSSAAAGSHHHHHH
B2: CD33/CD3 tandem diabody 22 (bispecific antibody)
chain: DIQMTQSPSSLSASVGDRVTITCRSSTGAVTTSNYANWVQQKPGKAPKALIGGTNKRAPGVPSRFSGSLIGDKATLTISSLQPEDFATYYCALWYSNLWVFGQGTKVEIKGGSGGSQVQLVQSGAEVKKPGSSVKVSCKASGGTFSSYGISWVRQAPGQGLEWMGGIIPIFGSAHYAQKFQGRVTITADESTSTAYMELSSLRSEDTAVYYCAREYYYDSSEWAFDIWGQGTLVTVSSGGSGQSVLTQPPSASGTPGQRVTISCSGSSSNIGSNTVKWYQQLPGTAPKLLIYSNNQRSSGVPDRFSGSKSGSSASLAISGLQSEDEADYYCAAWDDSLNGYVFGGGTKLTVLGGSGGSEVQLVESGGGLVQPGGSLRLSCAASGFTFSTYAMNWVRQAPGKGLEWVGRIRSKYNNYATYYADSVKDRFTISRDDSKNSLYLQMNSLKTEDTAVYYCARHGNFGNSYVSYFAYWGQGTLVTVSSAAAGSHHHHHH
B3: CD33/CD3 tandem diabody 23 (bispecific antibody)
chain: DIQMTQSPSSLSASVGDRVTITCRSSTGAVTTSNYANWVQQKPGKAPKGLIGGTNKRAPGVPSRFSGSLIGTDFTLTISSLQPEDFATYYCALWYSNLWVFGQGTKVEIKGGSGGSQVQLVQSGAEVKKPGSSVKVSCKASGGTFSSYGISWVRQAPGQGLEWMGGIIPIFGSAHYAQKFQGRVTITADESTSTAYMELSSLRSEDTAVYYCAREYYYDSSEWAFDIWGQGTLVTVSSGGSGQSVLTQPPSASGTPGQRVTISCSGSSSNIGSNTVKWYQQLPGTAPKLLIYSNNQRSSGVPDRFSGSKSGSSASLAISGLQSEDEADYYCAAWDDSLNGYVFGGGTKLTVLGGSGGSEVQLVESGGGLVQPGGSLRLSCAASGFTFSTYAMNWVRQAPGKGLEWVGRIRSKYNNYATYYADSVKDRFTISRDDSKNSLYLQMNSLKTEDTAVYYCARHGNFGNSYVSWFAYWGQGTLVTVSS
B4: CD33/CD3 tandem diabody 24 (bispecific antibody)
chain: DIQMTQSPSSLSASVGDRVTITCRSSTGAVTTSNYANWVQQKPGKAPKALIGGTNKRAPGVPSRFSGSLIGDKATLTISSLQPEDFATYYCALWYSNLWVFGQGTKVEIKGGSGGSQVQLVQSGAEVKKPGSSVKVSCKASGGTFDSYAISWVRQAPGQGLEWMGGIIPIFGSAHYSQKFQGRVTITADESTSTAYMELSSLRSEDTAVYYCAREYYYDSSEWAFDIWGQGTLVTVSSGGSGQSVLTQPPSASGTPGQRVTISCSGSSSNIGDNVVNWYQQLPGTAPKLLIYSTNKRPSGVPDRFSGSKSGSSASLAISGLQSEDEADYYCAAWDDSLSAYVFGGGTKLTVLGGSGGSEVQLVESGGGLVQPGGSLRLSCAASGFTFSTYAMNWVRQAPGKGLEWVGRIRSKYNNYATYYADSVKDRFTISRDDSKNSLYLQMNSLKTEDTAVYYCARHGNFGNSYVSYFAYWGQGTLVTVSSAAAGSHHHHHH
B5: CD33/CD3 tandem diabody 03 (bispecific antibody)
chain: B1 chain with V218N, Y222S, Y223F
B6: CD33/CD3 tandem diabody 04 (bispecific antibody)
chain: B1 chain with V218N, Y222S, Y223L
B7: CD33/CD3 tandem diabody 05 (bispecific antibody)
chain: DIQMTQSPSSLSASVGDRVTITCRSSTGAVTTSNYANWVQQKPGKAPKGLIGGTNKRAPGVPARFSGSGSGTDFTLTISSLQPEDFATYYCALWYSNLWVFGQGTKVEIKGGSGGSQVQLVQSGAEVKKPGASVKVSCKASGYTFTSYDINWVRQAPGQGLEWMGWMNPNSGNTGFAQKFQGRVTMTRDTSTSTVYMELSSLRSEDTAVYYCARDRANTDYSFGMDVWGQGTLVTVSSGGSGGQSVLTQPPSASGTPGQRVTISCSGSRSNIGSNTVNWYQQLPGTAPKLLIYGNNQRPSGVPDRFSGSKSGTSASLAISGLQSEDEADYYCATWDDSLIGWVFGGGTKLTVLGGSGGSEVQLVESGGGLVQPGGSLRLSCAASGFTFSTYAMNWVRQAPGKGLEWVGRIRSKYNNYATYYADSVKDRFTISRDDSKNSLYLQMNSLKTEDTAVYYCARHGNFGNSYVSWFAYWGQGTLVTVSSAAAGSHHHHHH
B8: CD33/CD3 tandem diabody 06 (bispecific antibody)
chain: B7 chain with F223L
B9: CD33/CD3 tandem diabody 07 (bispecific antibody)
chain: DIQMTQSPSSLSASVGDRVTITCRSSTGAVTTSNYANWVQQKPGKAPKALIGGTNKRAPGVPSRFSGSLIGDKATLTISSLQPEDFATYYCALWYSNLWVFGQGTKVEIKGGSGGSQVQLQESGGGVVQPGRSLRLSCAASGFSFSNYGIHWVRQAPGKGLEWVALISYDGNKKFYADSVKGRFAISRDTSKNTVDLQMTSLRPEDTAVYYCAKDRLESAAFDYWGQGTLVTVSSGGSGGSSYELTQPPSVSVAPGQTAMITCGGNNIGSTTVHWYQQKPGQAPVLVVYDDNERPSGIPERFSGSNSGSTATLTINRVEAGDEADYYCQVWDSGSDHVVFGGGTKLTVLGGSGGSEVQLVESGGGLVQPGGSLRLSCAASGFTFSTYAMNWVRQAPGKGLEWVGRIRSKYNNYATYYADSVKDRFTISRDDSKNSLYLQMNSLKTEDTAVYYCARHGNFGNSYVSYFAYWGQGTLVTVSSAAAGSHHHHHH
B10: CD33/CD3 tandem diabody 08 (bispecific antibody)
chain: QSVLTQPPSASGTPGQRVTISCSGSRSNIGSNTVNWYQQLPGTAPKLLIYGNNQRPSGVPDRFSGSKSGSSASLAISGLQSEDEADYYCATWDDSLIGWVFGGGTKLTVLGGSGGSEVQLVESGGGLVQPGGSLRLSCAASGFTFSTYAMNWVRQAPGKGLEWVGRIRSKYNNYATYYADSVKDRFTISRDDSKNSLYLQMNSLKTEDTAVYYCARHGNFGNSYVSYFAYWGQGTLVTVSSGGSGGSDIQMTQSPSSLSASVGDRVTITCRSSTGAVTTSNYANWVQQKPGKAPKALIGGTNKRAPGVPSRFSGSLIGDKATLTISSLQPEDFATYYCALWYSNLWVFGQGTKVEIKGGSGGSQVQLVQSGAEVKKPGASVKVSCKASGYTFTSYDINWVRQAPGQGLEWMGWMNPNSGNTGFAQKFQGRVTMTRDTSTSTVYMELSSLRSEDTAVYYCARDRANTDFSYGMDVWGQGTLVTVSSAAAGSHHHHHH
B11: CD33/CD3 tandem diabody 09 (bispecific antibody)
chain: B1 chain with A63S, G69L, S70I, T72D, D73K, F74A, V218N, Y221F, Y222S, T312S
B12: CD33/CD3 tandem diabody 01 (bispecific antibody)
chain: B1 chain with V218N, Y221F, Y222S, T312S
B13: CD33/CD3 tandem diabody 10 (bispecific antibody)
chain: B1 chain with A63S, G69L, S70I, T72D, D73K, F74A, V218N, Y222S, Y223F
B14: CD33/CD3 tandem diabody 11 (bispecific antibody)
chain: B1 chain with A63S, G69L, S70I, T72D, D73K, F74A, V218N, Y222S, Y223L
B15: CD33/CD3 tandem diabody 12 (bispecific antibody)
chain: B1 chain with G49A, A63S, G69L, S70I, T72D, D73K, F74A, W469Y
B16: CD33/CD3 tandem diabody 13 (bispecific antibody)
chain: DIQMTQSPSSLSASVGDRVTITCRSSTGAVTTSNYANWVQQKPGKAPKGLIGGTNKRAPGVPSRFSGSLIGTDFTLTISSLQPEDFATYYCALWYSNLWVFGQGTKVEIKGGSGGSQVQLVQSGAEVKKPGASVKVSCKASGYTFTSYDINWVRQAPGQGLEWMGWMNPNSGNTGFAQKFQGRVTMTRDTSTSTVYMELSSLRSEDTAVYYCARDRAVTDYYYGMDVWGQGTLVTVSSGGSGQSVLTQPPSASGTPGQRVTISCSGSRSNIGSNTVNWYQQLPGTAPKLLIYGNNQRPSGVPDRFSGSKSGTSASLAISGLQSEDEADYYCATWDDSLIGWVFGGGTKLTVLGGSGGSEVQLVESGGGLVQPGGSLRLSCAASGFTFSTYAMNWVRQAPGKGLEWVGRIRSKYNNYATYYADSVKDRFTISRDDSKNSLYLQMNSLKTEDTAVYYCARHGNFGNSYVSWFAYWGQGTLVTVSS

target: cynomolgus CD33 (cynomolgus); experiment: flow cytometry KDs on CHO cells, cyno CD33 / human CD33

B1 was tested. Which KD ratio CynoCD33/huCD33 did it give?
Its KD ratio CynoCD33/huCD33 is 1.1.

Which KD ratio CynoCD33/huCD33 does the source give for B2 here?
Its KD ratio CynoCD33/huCD33 is 0.6.

With B3 as the binder, how does the KD ratio CynoCD33/huCD33 read?
Its KD ratio CynoCD33/huCD33 is 1.9.

B4 was tested. Which KD ratio CynoCD33/huCD33 did it give?
The KD ratio CynoCD33/huCD33 was 1.8.

How did the KD ratio CynoCD33/huCD33 turn out when B5 was run?
Its KD ratio CynoCD33/huCD33 is 0.6.

Which KD ratio CynoCD33/huCD33 does the source give for B6 here?
Its KD ratio CynoCD33/huCD33 is 1.1.

For B7, which KD ratio CynoCD33/huCD33 is on record?
The KD ratio CynoCD33/huCD33 was 0.8.

B8 was tested. Which KD ratio CynoCD33/huCD33 did it give?
Its KD ratio CynoCD33/huCD33 is 0.8.

Which KD ratio CynoCD33/huCD33 does the source give for B9 here?
Its KD ratio CynoCD33/huCD33 is 45.8.

B10 was tested. Which KD ratio CynoCD33/huCD33 did it give?
Its KD ratio CynoCD33/huCD33 is 0.6.

Which KD ratio CynoCD33/huCD33 does the source give for B11 here?
The KD ratio CynoCD33/huCD33 was 1.

Which KD ratio CynoCD33/huCD33 does the source give for B12 here?
The KD ratio CynoCD33/huCD33 was 0.7.

How did the KD ratio CynoCD33/huCD33 turn out when B13 was run?
Its KD ratio CynoCD33/huCD33 is 0.8.

Which KD ratio CynoCD33/huCD33 does the source give for B14 here?
The KD ratio CynoCD33/huCD33 was 1.2.

With B15 as the binder, how does the KD ratio CynoCD33/huCD33 read?
Its KD ratio CynoCD33/huCD33 is 1.7.

How did the KD ratio CynoCD33/huCD33 turn out when B16 was run?
Its KD ratio CynoCD33/huCD33 is 1.6.
